The values that follow come from patent publication US20040258656, “High affinity TGFbeta nucleic acid ligands and inhibitors” (published 2004).

Read-outs that look alike come from different tables or passages of the source.

Data set [1] has as its target T1, TGFβ2 (transforming growth factor beta 2) (Homo sapiens, UniProt P61812 SEQ:1-112).
T1 sequence: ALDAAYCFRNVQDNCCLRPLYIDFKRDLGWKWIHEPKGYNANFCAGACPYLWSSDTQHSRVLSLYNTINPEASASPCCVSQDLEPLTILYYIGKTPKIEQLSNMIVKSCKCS
Put plainly: filter. Particulars: chain copies: 2 (inferred, homodimer).

For data set [2], the target named is T1, TGFβ2 (transforming growth factor beta …). Put plainly: cell_activity; mink lung epithelial cell proliferation. To be noted: chain copies: 2 (inferred, homodimer). On the procedure: (§1) The bioactivity of TGFβ2 nucleic acid ligands was measured with mink lung epithelial cells. Proliferation of these cells is inhibited by TGFβ2. Human TGFβ2 was titrated on the cells and ³H-thymidine incorporation was measured. […] This inhibitory amount of TGFβ2 along with varying amounts of nucleic acid ligand (typically 0.3 or 1 nM to 1 or 3 μM, in 3 fold increments) was used. Typically, cells were plated at 10E5/ml in 96-well plates in 100 μl MEM, 10 mM HEPES pH 7.4, 0.2% FBS. […] After incubation, the cells were lysed with 1% Triton X-100 and harvested onto GF/B filter plates in a Packard 96 well plate harvester, and ³H-thymidine incorporation in cellular DNA was quantitated by scintillation counting in MicroScint (Packard, Mariden, Conn.) in a Packard Top-Count. Data were plotted as % of maximum ³H-thymidine incorporation vs RNA concentration, and were fitted by the software Kaleidagraph (Synergy Software, Reading, Pa.) to the equation m3*(m0+m1+(m2)−((m0+m1+(m2))*(m0+m1+(m2))−4*(m0)*( m2)))\hat{ }0.5)/(2*(m2)); where m0 is the concentration of competitor RNA; m1 is the IC50, m2 is the concentration of TGFβ2, and m3 is the plateau value of the fraction of maximum ³H-thymidine incorporation.

Data set [3] has the same target. Nature of the data set: filter; 37C; Ki 10 nM in cell assay. To be noted: chain copies: 2 (inferred, homodimer). The method, then:
(§2) The binding activity of individual ligands was determined by measuring the equilibrium dissociation constants using nitrocellulose partitioning of labeled RNA as a function of protein concentration. RNA was body-labeled or guanylated and then 5′-end labeled with γ-³²P ATP and T4 polynucleotide kinase. Binding reactions were set at various protein concentrations (typically varied in either 3-fold or 10-fold increments) while maintaining the labeled RNA concentration constant at less than 0.1 nM, and incubated at 37° C. for 10 minutes. Protein-RNA complexes were partitioned away from uncomplexed RNA, by filtering the binding reactions through a nitrocellulose/cellulose acetated mixed matrix (0.45 μm pore size filter disks, type HA; Millipore, Co., Bedford, Mass.). For filtration, the filters were placed onto a vacuum manifold (12-well, Millipore, or 96-well BRL) and wetted by aspirating 1-5 ml of binding buffer. The binding reactions were aspirated through the filters, washed with 1-5 ml of binding buffer and counted in a scintillation counter (Beckmann).

Data set [4] has the same target. Nature of the data set: cell_activity; mink lung epithelial cell proliferation. To be noted: chain copies: 2 (homodimer, stated). On the procedure:
as §1, with “incorporation. […]” for “incorporation.”

Data set [5] has the same target. Put plainly: filter; Table 18 footnote states ~1 nM; Ki ~10 nM. Particulars: chain copies: 2 (inferred, homodimer).
The target is the same in data set [6]. Put plainly: filter; 37C; Ki 230 nM in cell assay. Particulars: chain copies: 2 (inferred, homodimer). The method, then:
as §2

Data set [7] has the same target. Nature of the data set: cell_activity; mink lung epithelial cell proliferation; text p154 about 200 nM. To be noted: chain copies: 2 (homodimer, stated). On the procedure:
as §1, with “incorporation. […]” for “incorporation.”

Data set [8] has the same target. Put plainly: filter; 37C; Ki 30 nM in cell assay. To be noted: chain copies: 2 (inferred, homodimer). The method, then: as §2
Data set [9] concerns the target T2, TGFβ1 (transforming growth factor beta 1) (Homo sapiens, UniProt P01137 SEQ:1-112). Nature of the data set: bioactivity +++. To be noted: chain copies: 2 (inferred, homodimer).
The target in data set [10] is T2, TGFβ1 (transforming growth factor beta …).

T2 sequence (P01137 279-390): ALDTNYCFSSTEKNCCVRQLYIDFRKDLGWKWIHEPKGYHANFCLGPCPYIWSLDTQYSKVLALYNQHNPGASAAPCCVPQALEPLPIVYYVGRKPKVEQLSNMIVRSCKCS

In the case of GGAGGUUAUUACAGAGUCUGUAUAGCUGUACUCCCC (ssRNA, 2'-F C and U; 3'-3' dT cap) [NX22283], the binding signal in [1] was 0.6 x Kd of NX22284. In addition, the Ki in data set [2] stood at 10 nM.

B1: 21a-21 (ssRNA)
RNA: GGGAGGACGAUGCGGUUCAGGAGGUUAUUACAGAGUCUGUAUAGCUGUACUCCCCAGACGACUCGCCCGA
modifications: 2'-F C and U
For B1, in data set [3], the Kd is about 1 nM.

B2: 21a-21 (ssRNA)
RNA: GGGAGGACGAUGCGGUUCAGGAGGUUAUUACAGAGUCUGUAUAGCUGUACUCCCCAGACGACUCGCCCGA
modifications: 2'-F C and U; 2'-OH A and G
As for B2, the Ki in [4] turned out to be 10 nM.
In turn, GGAGGUUAUUACAGAGUCUGUAUAGCUGUACUCC (ssRNA, 2'-F C and U; 3'-3' dT cap) [NX22284] gave a Kd in data set [5] of about 2 nM.

B3: 14i-1 (ssRNA)
RNA: GGGAGGACGAUGCGGAAGUAACGUUGUAGUAAAAUUCGUUCUCUCGGCAUUUGGCCAGACGACUCGCCCGA
modifications: 2'-F C and U
With B3, in [6], the Kd was about 10 nM.

B4: 14i-1 (ssRNA)
RNA: GGGAGGACGAUGCGGAAGUAACGUUGUAGUAAAAUUCGUUCUCUCGGCAUUUGGCCAGACGACUCGCCCGA
modifications: 2'-F C and U; 2'-OH A and G
Turning to B4, in data set [7], the Ki is 230 nM.

B5: 21a-4 (ssRNA)
RNA: GGGAGGACGAUGCGGCGUUGUUUAGUCGUAUGUAUAUACUAAGUCCGCUUGUCCCCAGACGACUCGCCCGA
modifications: 2'-F C and U
Turning to B5, the Kd in data set [8] was about 3 nM.

B6: 21a-4 (ssRNA)
RNA: GGGAGGACGAUGCGGCGUUGUUUAGUCGUAUGUAUAUACUAAGUCCGCUUGUCCCCAGACGACUCGCCCGA
modifications: 2'-F C and U; 2'-OH A and G
Regarding B6, in data set [4], the Ki came out at 30 nM.
On to GGGUGCCUUUUGCCUAGGUUGUGAUUUGUAACCUUCUGCCCA (ssRNA, 2'-F pyrimidines (library chemistry)) [CD70 (ChD70)], for which the binding result in data set [9] is listed as “binds”.
Turning to GGGUGCCUUUUGCCUAGGUUGUGAUUUGUAACCUUCUGCCCA (ssRNA, 2'-OMe purines at 1-3, 16-18, 21, 23-24, 28, 30-31 and 42; 3'-3' U) [ChD70-m17], in data set [9], the binding result is on record as “binds”.
On to GGGUGCCUUUUGCCUAGGUUGUGAUUUGUAACCUUCUGCCCA (ssRNA, 2'-OMe purines at 21, 23-24, 28 and 30) [ChD70-m13], for which the binding result in data set [10] was “binds”.
